The values below come from the Human Domainome abundance scans (Beltran et al. 2025).

Sequences and labels used below:
B1: Ankyrin-3, residues 4094 to 4171; numbered along this chain, Q12955 (parent)
chain: MAIVADHLGLSWTELARELNFSVDEINQIRVENPNSLISQSFMLLKKWVTRDGKNATTDALTSVLTKINRIDIVTLLE

± gives the uncertainty stated by the source.

The variants in this data set derive from B1. The experiment in a line: abundance fitness (aPCA) (normalised: wild type 0, dead -1); higher = more abundant; growth selection in yeast, the domain comes from the species named. The note with it: Homo sapiens.
Regarding GAIVADHLGLSWTELARELNFSVDEINQIRVENPNSLISQSFMLLKKWVTRDGKNATTDALTSVLTKINRIDIVTLLE [M1G], the abundance fitness was -0.566 ± 0.11.

Regarding EAIVADHLGLSWTELARELNFSVDEINQIRVENPNSLISQSFMLLKKWVTRDGKNATTDALTSVLTKINRIDIVTLLE [M1E], the abundance fitness is -0.365 ± 0.13.

Consider VAIVADHLGLSWTELARELNFSVDEINQIRVENPNSLISQSFMLLKKWVTRDGKNATTDALTSVLTKINRIDIVTLLE [M1V], for which the abundance fitness is -0.151 ± 0.08. With AAIVADHLGLSWTELARELNFSVDEINQIRVENPNSLISQSFMLLKKWVTRDGKNATTDALTSVLTKINRIDIVTLLE [M1A], the abundance fitness is -0.322 ± 0.1. Next, CAIVADHLGLSWTELARELNFSVDEINQIRVENPNSLISQSFMLLKKWVTRDGKNATTDALTSVLTKINRIDIVTLLE [M1C]: -0.198 ± 0.23; HAIVADHLGLSWTELARELNFSVDEINQIRVENPNSLISQSFMLLKKWVTRDGKNATTDALTSVLTKINRIDIVTLLE [M1H]: -0.587 ± 0.44. The result for RAIVADHLGLSWTELARELNFSVDEINQIRVENPNSLISQSFMLLKKWVTRDGKNATTDALTSVLTKINRIDIVTLLE [M1R] reads -0.265 ± 0.11; that for TAIVADHLGLSWTELARELNFSVDEINQIRVENPNSLISQSFMLLKKWVTRDGKNATTDALTSVLTKINRIDIVTLLE [M1T], -0.801 ± 0.4.

Consider KAIVADHLGLSWTELARELNFSVDEINQIRVENPNSLISQSFMLLKKWVTRDGKNATTDALTSVLTKINRIDIVTLLE [M1K], for which the abundance fitness was -0.421 ± 0.1.

As to YAIVADHLGLSWTELARELNFSVDEINQIRVENPNSLISQSFMLLKKWVTRDGKNATTDALTSVLTKINRIDIVTLLE [M1Y], the abundance fitness came out at 0.23 ± 0.45. Next, DAIVADHLGLSWTELARELNFSVDEINQIRVENPNSLISQSFMLLKKWVTRDGKNATTDALTSVLTKINRIDIVTLLE [M1D]: -0.643 ± 0.42; IAIVADHLGLSWTELARELNFSVDEINQIRVENPNSLISQSFMLLKKWVTRDGKNATTDALTSVLTKINRIDIVTLLE [M1I]: -0.321 ± 0.37; NAIVADHLGLSWTELARELNFSVDEINQIRVENPNSLISQSFMLLKKWVTRDGKNATTDALTSVLTKINRIDIVTLLE [M1N]: -0.099 ± 0.28. The result for MAILADHLGLSWTELARELNFSVDEINQIRVENPNSLISQSFMLLKKWVTRDGKNATTDALTSVLTKINRIDIVTLLE [V4L] reads -0.397 ± 0.057; that for MAIWADHLGLSWTELARELNFSVDEINQIRVENPNSLISQSFMLLKKWVTRDGKNATTDALTSVLTKINRIDIVTLLE [V4W], -1.01 ± 0.38; that for MAIMADHLGLSWTELARELNFSVDEINQIRVENPNSLISQSFMLLKKWVTRDGKNATTDALTSVLTKINRIDIVTLLE [V4M], -0.963 ± 0.23. The result for MAIEADHLGLSWTELARELNFSVDEINQIRVENPNSLISQSFMLLKKWVTRDGKNATTDALTSVLTKINRIDIVTLLE [V4E] reads -1.01 ± 0.18; that for MAIAADHLGLSWTELARELNFSVDEINQIRVENPNSLISQSFMLLKKWVTRDGKNATTDALTSVLTKINRIDIVTLLE [V4A], -0.253 ± 0.073; that for MAIFADHLGLSWTELARELNFSVDEINQIRVENPNSLISQSFMLLKKWVTRDGKNATTDALTSVLTKINRIDIVTLLE [V4F], -0.789 ± 0.28. As to MAITADHLGLSWTELARELNFSVDEINQIRVENPNSLISQSFMLLKKWVTRDGKNATTDALTSVLTKINRIDIVTLLE [V4T], the abundance fitness was -0.291 ± 0.08.

As for MAINADHLGLSWTELARELNFSVDEINQIRVENPNSLISQSFMLLKKWVTRDGKNATTDALTSVLTKINRIDIVTLLE [V4N], the abundance fitness was -0.663 ± 0.22. On to MAIRADHLGLSWTELARELNFSVDEINQIRVENPNSLISQSFMLLKKWVTRDGKNATTDALTSVLTKINRIDIVTLLE [V4R], for which the abundance fitness is -0.925 ± 0.11.

In the case of MAIQADHLGLSWTELARELNFSVDEINQIRVENPNSLISQSFMLLKKWVTRDGKNATTDALTSVLTKINRIDIVTLLE [V4Q], the abundance fitness was -0.659 ± 0.19. In the case of MAIKADHLGLSWTELARELNFSVDEINQIRVENPNSLISQSFMLLKKWVTRDGKNATTDALTSVLTKINRIDIVTLLE [V4K], the abundance fitness was -0.806 ± 0.29.

Take MAIGADHLGLSWTELARELNFSVDEINQIRVENPNSLISQSFMLLKKWVTRDGKNATTDALTSVLTKINRIDIVTLLE [V4G]: the abundance fitness is -0.889 ± 0.099.

On to MAIPADHLGLSWTELARELNFSVDEINQIRVENPNSLISQSFMLLKKWVTRDGKNATTDALTSVLTKINRIDIVTLLE [V4P], for which the abundance fitness was -0.921 ± 0.15. The result for MAIIADHLGLSWTELARELNFSVDEINQIRVENPNSLISQSFMLLKKWVTRDGKNATTDALTSVLTKINRIDIVTLLE [V4I] reads -0.169 ± 0.17. Next, MAISADHLGLSWTELARELNFSVDEINQIRVENPNSLISQSFMLLKKWVTRDGKNATTDALTSVLTKINRIDIVTLLE [V4S]: -0.766 ± 0.22. For MPIVADHLGLSWTELARELNFSVDEINQIRVENPNSLISQSFMLLKKWVTRDGKNATTDALTSVLTKINRIDIVTLLE [A2P], the abundance fitness was -0.193 ± 0.057. Turning to MKIVADHLGLSWTELARELNFSVDEINQIRVENPNSLISQSFMLLKKWVTRDGKNATTDALTSVLTKINRIDIVTLLE [A2K], the abundance fitness was -0.095 ± 0.2. Next, MHIVADHLGLSWTELARELNFSVDEINQIRVENPNSLISQSFMLLKKWVTRDGKNATTDALTSVLTKINRIDIVTLLE [A2H]: -0.033 ± 0.077. For MQIVADHLGLSWTELARELNFSVDEINQIRVENPNSLISQSFMLLKKWVTRDGKNATTDALTSVLTKINRIDIVTLLE [A2Q], the abundance fitness amounted to 0.058 ± 0.072.

In the case of MCIVADHLGLSWTELARELNFSVDEINQIRVENPNSLISQSFMLLKKWVTRDGKNATTDALTSVLTKINRIDIVTLLE [A2C], the abundance fitness was -0.077 ± 0.1. Take MLIVADHLGLSWTELARELNFSVDEINQIRVENPNSLISQSFMLLKKWVTRDGKNATTDALTSVLTKINRIDIVTLLE [A2L]: the abundance fitness was -0.126 ± 0.067. The result for MVIVADHLGLSWTELARELNFSVDEINQIRVENPNSLISQSFMLLKKWVTRDGKNATTDALTSVLTKINRIDIVTLLE [A2V] reads -0.146 ± 0.049.
